From publication doi:10.1101/2022.09.13.507756 (bioRxiv, 2022)

Columns and labels:
SEC + SEC-MALS = target: the molecule itself; experiment: SEC + SEC-MALS
SEC = target: the molecule itself; experiment: SEC

Protein | stoichiometry N (SEC + SEC-MALS) | stoichiometry N (SEC)
Cyclohexadienyl dehydratase from Pseudomonas aeruginosa (PaCDT) (enzyme, UniProt Q01269 26-268, looked up) QESRLDRILESGVLRVATTGDYKPFSYRTEEGGYAGFDVDMAQRLAESLGAKLVVVPTSWPNLMRDFADDRFDIAMSGISINLERQRQAYFSIPYLRDGKTPITLCSEEARFQTLEQIDQPGVTAIVNPGGTNEKFARANLKKARILVHPDNVTIFQQIVDGKADLMMTDAIEARLQSRLHPELCAVHPQQPFDFAEKAYLLPRDEAFKRYVDQWLHIAEQSGLLRQRMEHWLEYRWPTAHGK | 3 | 
PaCDTΔC (enzyme, Pseudomonas aeruginosa, UniProt Q01269 26-259, looked up) QESRLDRILESGVLRVATTGDYKPFSYRTEEGGYAGFDVDMAQRLAESLGAKLVVVPTSWPNLMRDFADDRFDIAMSGISINLERQRQAYFSIPYLRDGKTPITLCSEEARFQTLEQIDQPGVTAIVNPGGTNEKFARANLKKARILVHPDNVTIFQQIVDGKADLMMTDAIEARLQSRLHPELCAVHPQQPFDFAEKAYLLPRDEAFKRYVDQWLHIAEQSGLLRQRMEHWLE |  | 3
Ws0279 (natural protein, UniProt Q7MAG0 24-258, looked up) QKSTLNEIIKRGELRVGLEPGYLPFEMKDKKGNVIGFDVDLAREMAKAMGVKLKLVPTSWDGLIPGLVTEKFDIIISGMTISQERNLRVNFVEPYIVVGQSLLVKKGLEKGVKSYKDLDKPELTLVTKFGVSAEYAAKRLFKNAKLKTYDTEAEAVQEVLNGKADMFIFDLPFNVAFMAQKGQGYLVHLDTSLTYEPLGWAIKKGDPDFLNWLNHFLAQIKHDGSYDELYERWFV |  | 3
